The results in this text go back to patent publication US20120135923A1, “Use of Melanocortins to Treat Dyslipidemia” (IPSEN PHARMA, S.A.S., priority 2009, published 2012).

Bridge positions count the residues as written; N and C are the ends. Square brackets hold non-standard residues; d marks the D form. Ends that are not written are not given here. 2Nal = N[C@@H](Cc1ccc2ccccc2c1)C(=O)O; d2Nal = N[C@H](Cc1ccc2ccccc2c1)C(=O)O; hArg = N=C(N)NCCCC[C@H](N)C(=O)O; Pen = CC(C)(S)[C@H](N)C(=O)O; Nle = CCCC[C@H](N)C(=O)O; Aib = CC(C)(N)C(=O)O; GABA = NCCCC(=O)O; βAla = NCCC(=O)O

B1: Ac-c(Cys-Glu-His-D-2-Nal-Arg-1-Nal-Ala-Cys)-Pro-Pro-Lys-Asp-β-Ala-Tyr-Gly-Arg-Lys-Lys-Arg-Arg-Gln-Arg-Arg-Arg-NH2 (peptide)
peptide: CEHXRXACPPKDXYGRKKRRQRRR
modifications: N-terminal acetyl; X4=D-2-Nal; X6=1-Nal; X13=β-Ala; Cys1-Cys8 disulfide; C-terminal amide
B2: Ac-c(Cys-Glu-His-D-2-Nal-Arg-Trp-Ala-Cys)-Pro-Pro-Lys-Asp-NH2 (peptide)
peptide: Ac-CEH[d2Nal]RWACPPKD-NH2
modifications: disulfide 1-8
SMILES: CC(=O)N[C@H]1CSSC[C@@H](C(=O)N2CCC[C@H]2C(=O)N2CCC[C@H]2C(=O)N[C@@H](CCCCN)C(=O)N[C@@H](CC(=O)O)C(N)=O)NC(=O)[C@H](C)NC(=O)[C@H](Cc2c[nH]c3ccccc23)NC(=O)[C@H](CCCNC(=N)N)NC(=O)[C@@H](Cc2ccc3ccccc3c2)NC(=O)[C@H](Cc2c[nH]cn2)NC(=O)[C@H](CCC(=O)O)NC1=O
B3: Ac-Nle-c(Cys-D-Ala-His-D-Phe-Arg-Trp-Cys)-(Doc)2-Tyr-Gly-Arg-Lys-Lys-Arg-Arg-Gln-Arg-Arg-Arg-NH2 (peptide)
peptide: XCAHFRWCXXYGRKKRRQRRR
modifications: N-terminal acetyl; X1=Nle; D-Ala3; D-Phe5; X9=Doc; X10=Doc; Cys2-Cys8 disulfide; C-terminal amide
B4: Ac-c(Cys-Glu-His-D-2-Nal-Arg-2-Nal-Aib-Cys)-Pro-Pro-Lys-Asp-NH2 (peptide)
peptide: Ac-CEH[d2Nal]R[2Nal][Aib]CPPKD-NH2
modifications: disulfide 1-8
SMILES: CC(=O)N[C@H]1CSSC[C@@H](C(=O)N2CCC[C@H]2C(=O)N2CCC[C@H]2C(=O)N[C@@H](CCCCN)C(=O)N[C@@H](CC(=O)O)C(N)=O)NC(=O)C(C)(C)NC(=O)[C@H](Cc2ccc3ccccc3c2)NC(=O)[C@H](CCCNC(=N)N)NC(=O)[C@@H](Cc2ccc3ccccc3c2)NC(=O)[C@H](Cc2c[nH]cn2)NC(=O)[C@H](CCC(=O)O)NC1=O

Sequence of hMC4-R (human) (P32245 whole entry): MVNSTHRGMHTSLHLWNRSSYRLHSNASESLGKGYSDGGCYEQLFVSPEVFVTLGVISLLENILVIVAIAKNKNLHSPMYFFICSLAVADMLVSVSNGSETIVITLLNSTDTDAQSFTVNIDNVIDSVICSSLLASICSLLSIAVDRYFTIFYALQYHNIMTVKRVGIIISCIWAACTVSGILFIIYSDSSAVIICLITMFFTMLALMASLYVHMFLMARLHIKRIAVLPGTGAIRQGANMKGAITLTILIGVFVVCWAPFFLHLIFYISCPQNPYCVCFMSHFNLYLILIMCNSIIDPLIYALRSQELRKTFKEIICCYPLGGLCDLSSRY
Sequence of hMC1-R (human) (Q01726 whole entry): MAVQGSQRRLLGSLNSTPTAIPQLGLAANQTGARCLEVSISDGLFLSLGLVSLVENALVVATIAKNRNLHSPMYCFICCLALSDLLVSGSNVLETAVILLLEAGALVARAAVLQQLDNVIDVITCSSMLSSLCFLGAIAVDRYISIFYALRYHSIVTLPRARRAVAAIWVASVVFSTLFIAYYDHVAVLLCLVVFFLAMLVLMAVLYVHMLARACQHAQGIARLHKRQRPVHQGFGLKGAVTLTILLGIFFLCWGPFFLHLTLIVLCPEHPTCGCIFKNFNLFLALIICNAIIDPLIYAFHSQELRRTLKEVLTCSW
Sequence of hMC5-R (human) (P33032 whole entry): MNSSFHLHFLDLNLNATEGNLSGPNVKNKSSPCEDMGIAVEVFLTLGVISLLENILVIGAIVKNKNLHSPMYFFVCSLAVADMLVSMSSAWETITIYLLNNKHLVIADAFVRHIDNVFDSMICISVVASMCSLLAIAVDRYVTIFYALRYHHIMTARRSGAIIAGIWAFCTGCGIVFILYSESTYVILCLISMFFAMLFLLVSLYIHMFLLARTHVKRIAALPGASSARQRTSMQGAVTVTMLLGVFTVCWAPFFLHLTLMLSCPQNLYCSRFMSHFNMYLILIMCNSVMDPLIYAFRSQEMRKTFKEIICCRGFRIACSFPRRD
Sequence of hMC3-R (human) (P41968 whole entry): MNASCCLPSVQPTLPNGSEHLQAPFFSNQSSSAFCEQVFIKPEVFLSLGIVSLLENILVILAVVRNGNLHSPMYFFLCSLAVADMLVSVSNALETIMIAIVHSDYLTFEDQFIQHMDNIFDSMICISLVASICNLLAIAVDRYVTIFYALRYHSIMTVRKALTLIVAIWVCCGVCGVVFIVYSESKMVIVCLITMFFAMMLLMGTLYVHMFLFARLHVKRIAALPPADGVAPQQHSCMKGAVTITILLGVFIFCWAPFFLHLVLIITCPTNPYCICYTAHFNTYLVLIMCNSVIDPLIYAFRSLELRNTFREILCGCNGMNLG
Sequence of human melanocortin receptor subtype 1 (hMC1-R) (human), Q01726 (Q01726 whole entry): as the sequence (Q01726 whole entry) above

One assay concerns the target hMC1-R (human) (UniProt Q01726). In words: cell-based or functional assay.
Consider Ac-[Nle]CH[dF]RW[GABA][Pen]-NH2 (disulfide 2-8) [Ac-Nle-c(Cys-His-D-Phe-Arg-Trp-Gaba-Pen)-NH2], for which the cAMP EC50 turned out to be 0.28 nM.

[Nle]CH[dF]RW[GABA]C-NH2 (disulfide 2-8) [Nle-c(Cys-His-D-Phe-Arg-Trp-Gaba-Cys)-NH2] gave a cAMP EC50 of 0.37 nM.

B1: the cAMP EC50 is 43.3.

For B2, the cAMP EC50 worked out at 66.1.

As to B3, the cAMP EC50 amounted to 4.7.

[dF]CH[d(Et)Tyr]RW[βAla][dC]T-NH2 (disulfide 2-8) [D-Phe-c(Cys-His-D-(Et)Tyr-Arg-Trp-β-Ala-D-Cys)-Thr-NH2] registered a cAMP EC50 of 0.35 nM.

For B4, the cAMP EC50 was 770.

Molecule GCEH[dF]RWC-NH2 (disulfide 2-8; also: residues 1-2 joined in a hydantoin ring (C(O))) [c[Hydantoin(C(O)-(Gly-Cys))-Glu-His-D-Phe-Arg-Trp-Cys]-NH2] returned a cAMP EC50 of 14.5 nM.

In turn, [dF]CH[d(Et)Tyr][hArg]W[βAla][dC]T-NH2 (disulfide 2-8) [D-Phe-c(Cys-His-D-(Et)Tyr-hArg-Trp-β-Ala-D-Cys)-Thr-NH2] showed a cAMP EC50 of 0.345 nM.

The next assay concerns the target hMC5-R (human) (UniProt P33032). Put plainly: cell-based or functional assay.
Ac-[Nle]CH[dF]RW[GABA][Pen]-NH2 (disulfide 2-8) [Ac-Nle-c(Cys-His-D-Phe-Arg-Trp-Gaba-Pen)-NH2] showed a cAMP EC50 of 3.9 nM.

Take [Nle]CH[dF]RW[GABA]C-NH2 (disulfide 2-8) [Nle-c(Cys-His-D-Phe-Arg-Trp-Gaba-Cys)-NH2]: the cAMP EC50 stood at 1.7 nM.

On to B1, for which the cAMP EC50 was found to be 1290 nM.

In turn, B2 yielded a cAMP EC50 of 6.84 nM.

The molecule B3 returned a cAMP EC50 of 147 nM.

Molecule [dF]CH[d(Et)Tyr]RW[βAla][dC]T-NH2 (disulfide 2-8) [D-Phe-c(Cys-His-D-(Et)Tyr-Arg-Trp-β-Ala-D-Cys)-Thr-NH2] registered a cAMP EC50 of 0.37 nM.

Turning to B4, the cAMP EC50 was 869 nM.

GCEH[dF]RWC-NH2 (disulfide 2-8; also: residues 1-2 joined in a hydantoin ring (C(O))) [c[Hydantoin(C(O)-(Gly-Cys))-Glu-His-D-Phe-Arg-Trp-Cys]-NH2]: the cAMP EC50 was 1780 nM.

As to [dF]CH[d(Et)Tyr][hArg]W[βAla][dC]T-NH2 (disulfide 2-8) [D-Phe-c(Cys-His-D-(Et)Tyr-hArg-Trp-β-Ala-D-Cys)-Thr-NH2], the cAMP EC50 was determined as 2.38 nM.

The next assay addresses hMC4-R (human) (UniProt P32245). In words: cell-based or functional assay.
As for Ac-[Nle]CH[dF]RW[GABA][Pen]-NH2 (disulfide 2-8) [Ac-Nle-c(Cys-His-D-Phe-Arg-Trp-Gaba-Pen)-NH2], the cAMP EC50 came to 0.028 nM.

In turn, [Nle]CH[dF]RW[GABA]C-NH2 (disulfide 2-8) [Nle-c(Cys-His-D-Phe-Arg-Trp-Gaba-Cys)-NH2] came in with a cAMP EC50 of 0.021 nM.

As to B1, the cAMP Kb came out at 5.87.

B2 returned a cAMP Kb of 0.687.

Take [dF]CH[d(Et)Tyr]RW[βAla][dC]T-NH2 (disulfide 2-8) [D-Phe-c(Cys-His-D-(Et)Tyr-Arg-Trp-β-Ala-D-Cys)-Thr-NH2]: the cAMP EC50 is 0.11 nM.

Consider B4, for which the cAMP Kb is 4.52.

With GCEH[dF]RWC-NH2 (disulfide 2-8; also: residues 1-2 joined in a hydantoin ring (C(O))) [c[Hydantoin(C(O)-(Gly-Cys))-Glu-His-D-Phe-Arg-Trp-Cys]-NH2], the cAMP EC50 worked out at 0.576 nM.

In the case of [dF]CH[d(Et)Tyr][hArg]W[βAla][dC]T-NH2 (disulfide 2-8) [D-Phe-c(Cys-His-D-(Et)Tyr-hArg-Trp-β-Ala-D-Cys)-Thr-NH2], the cAMP EC50 turned out to be 5380 nM.

A further assay concerns the target hMC3-R (human) (UniProt P41968). Put plainly: cell-based or functional assay.
Molecule Ac-[Nle]CH[dF]RW[GABA][Pen]-NH2 (disulfide 2-8) [Ac-Nle-c(Cys-His-D-Phe-Arg-Trp-Gaba-Pen)-NH2] displayed a cAMP EC50 of 0.24 nM.

Consider [Nle]CH[dF]RW[GABA]C-NH2 (disulfide 2-8) [Nle-c(Cys-His-D-Phe-Arg-Trp-Gaba-Cys)-NH2], for which the cAMP EC50 was 0.1 nM.

In turn, B1 came in with a cAMP Kb of 215.

Regarding B2, the cAMP Kb came to 33.4.

With [dF]CH[d(Et)Tyr]RW[βAla][dC]T-NH2 (disulfide 2-8) [D-Phe-c(Cys-His-D-(Et)Tyr-Arg-Trp-β-Ala-D-Cys)-Thr-NH2], the cAMP EC50 came to 1.1 nM.

B4 showed a cAMP Kb of 221.

In turn, GCEH[dF]RWC-NH2 (disulfide 2-8; also: residues 1-2 joined in a hydantoin ring (C(O))) [c[Hydantoin(C(O)-(Gly-Cys))-Glu-His-D-Phe-Arg-Trp-Cys]-NH2] displayed a cAMP EC50 of 21.8 nM.

[dF]CH[d(Et)Tyr][hArg]W[βAla][dC]T-NH2 (disulfide 2-8) [D-Phe-c(Cys-His-D-(Et)Tyr-hArg-Trp-β-Ala-D-Cys)-Thr-NH2] showed a cAMP EC50 of 2.71 nM.

Another assay concerns the target human melanocortin receptor subtype 1 (hMC1-R) (human), Q01726. Put plainly: [125I]-NDP-α-MSH competition, membranes.
As to IC[dA]H[dF]RWC-NH2 (disulfide 2-8; also: hydantoin ring from C(O) with Ile1-Cys2) [c[Hydantoin(C(O)-(Ile-Cys))-D-Ala-His-D-Phe-Arg-Trp-Cys]-NH2], the Ki came to 53.4 nM. In other words, the double-digit nanomolar range.

The target of another assay is human melanocortin receptor subtype 5 (hMC5-R) (human), P33032. In words: [125I]-NDP-α-MSH competition, membranes.
Sequence of human melanocortin receptor subtype 5 (hMC5-R) (human), P33032 (P33032 whole entry): as the sequence (P33032 whole entry) above
In the case of Ac-YRC[dA]H[dF]RWC-NH2 (disulfide 3-9) [Ac-Tyr-Arg-c(Cys-D-Ala-His-D-Phe-Arg-Trp-Cys)-NH2], the Ki came to 714 nM. This counts as sub-micromolar.

In the next assay the target is human melanocortin receptor subtype 4 (hMC4-R) (human), P32245. In words: [125I]-NDP-α-MSH competition, membranes.
Sequence of human melanocortin receptor subtype 4 (hMC4-R) (human), P32245 (P32245 whole entry): as the sequence (P32245 whole entry) above
With IC[dA]H[dF]RWC-NH2 (disulfide 2-8; also: hydantoin ring from C(O) with Ile1-Cys2) [c[Hydantoin(C(O)-(Ile-Cys))-D-Ala-His-D-Phe-Arg-Trp-Cys]-NH2], the Ki was found to be 41.6 nM.
